The results in this text go back to US20170266254A1 (AILERON THERAPEUTICS, published 2017).

Bridges are numbered along the chain shown (N, C = ends). [ ]: non-standard residue; d: D form. R8 = C=CCCCCCC[C@@](C)(N)C(=O)O; S5 = C=CCCC[C@](C)(N)C(=O)O

Broadly, the IC50 is the point on the concentration scale where inhibition reaches its midpoint.

The target in this experiment is T1, C-terminally 6x Histidine-tagged Beta-Catenin (aa 134-668, 59 KD) (UniProt P35222 134-668).
T1 construct: range 134-668; Armadillo repeat region
T1 sequence: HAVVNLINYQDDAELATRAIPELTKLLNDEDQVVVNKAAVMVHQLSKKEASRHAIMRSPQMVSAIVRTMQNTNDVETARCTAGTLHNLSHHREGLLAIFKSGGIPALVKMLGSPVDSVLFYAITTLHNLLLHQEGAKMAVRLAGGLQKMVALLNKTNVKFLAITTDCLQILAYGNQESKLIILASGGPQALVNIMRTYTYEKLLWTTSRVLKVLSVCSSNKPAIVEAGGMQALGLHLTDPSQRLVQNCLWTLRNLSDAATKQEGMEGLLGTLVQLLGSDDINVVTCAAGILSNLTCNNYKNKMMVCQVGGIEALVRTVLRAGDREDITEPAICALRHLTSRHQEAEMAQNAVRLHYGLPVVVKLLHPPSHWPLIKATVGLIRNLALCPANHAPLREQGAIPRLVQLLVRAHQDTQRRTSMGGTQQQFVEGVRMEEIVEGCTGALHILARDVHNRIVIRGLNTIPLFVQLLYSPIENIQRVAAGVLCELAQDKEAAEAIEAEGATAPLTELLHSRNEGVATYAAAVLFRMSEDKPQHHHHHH
As to the kind of experiment: competitive fluorescence polarization, FAM-labelled linear probe as competitor, His-tagged beta-catenin 134-668. Put shortly:
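FP competition in 25 mM Tris-HCl pH 7.5, 200 mM NaCl, 5 mM CHAPS, 2 mM DTT at room temperature. Competitor peptides at 40–0.7 μM 2× working range, constant DMSO. Probe (benchmark peptide with N-terminal FAM via β-Ala spacer) from 25 nM 10× stock. Read after 3 h in the dark, ex 485/em 528 nm.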
On the technique in general: Fluorescence polarisation rises when a labelled molecule tumbles more slowly, as on binding a larger partner.

B1: SP36 (peptide)
peptide: Ac-VERGLANVK[S5]SLV[S5]ES-NH2
modifications: staple 10-14
SMILES: CC(=O)N[C@H](C(=O)N[C@@H](CCC(=O)O)C(=O)N[C@@H](CCCNC(=N)N)C(=O)NCC(=O)N[C@@H](CC(C)C)C(=O)N[C@@H](C)C(=O)N[C@@H](CC(N)=O)C(=O)N[C@H](C(=O)N[C@@H](CCCCN)C(=O)N[C@@]1(C)CCCC=CCCC[C@@](C)(C(=O)N[C@@H](CCC(=O)O)C(=O)N[C@@H](CO)C(N)=O)NC(=O)[C@H](C(C)C)NC(=O)[C@H](CC(C)C)NC(=O)[C@H](CO)NC1=O)C(C)C)C(C)C
For the molecule B1, the IC50 was no less than 100 µM.

B2: SP50 (peptide)
peptide: LGANDELISFADEGAQEEKSS
chain: AARDLANVKSSLV
modifications: not fully specified; N-terminal acetyl; C-terminal amide; PEG3 = NH-(PEG)3-COOH (16 atoms) linker between the two peptide parts; $ = (S)-alpha-(2'-pentenyl)alanine at positions 11 and 15 of the first part and at positions 2 and 6 of the second part, each pair joined by an all-carbon crosslinker with one double bond
notes: The two peptide parts are joined by a non-peptide PEG3 spacer, not by a peptide bond
In the case of B2, the IC50 was 1.1 µM.

B3: SP3 (peptide)
peptide: Ac-RNLA[S5]VKS[S5]LVNES-NH2
modifications: staple 5-9
SMILES: CC(=O)N[C@@H](CCCNC(=N)N)C(=O)N[C@@H](CC(N)=O)C(=O)N[C@@H](CC(C)C)C(=O)N[C@@H](C)C(=O)N[C@@]1(C)CCCC=CCCC[C@@](C)(C(=O)N[C@@H](CC(C)C)C(=O)N[C@H](C(=O)N[C@@H](CC(N)=O)C(=O)N[C@@H](CCC(=O)O)C(=O)N[C@@H](CO)C(N)=O)C(C)C)NC(=O)[C@H](CO)NC(=O)[C@H](CCCCN)NC(=O)[C@H](C(C)C)NC1=O
notes: also called Ac-RNLA$VKS$LVNES-NH2
Consider B3, for which the IC50 was no less than 100 µM.

B4: SP46 (peptide)
peptide: Ac-LGANDELISF[S5]DEG[S5]QQQKSSN-NH2
modifications: staple 11-15
SMILES: CC[C@H](C)[C@H](NC(=O)[C@H](CC(C)C)NC(=O)[C@H](CCC(=O)O)NC(=O)[C@H](CC(=O)O)NC(=O)[C@H](CC(N)=O)NC(=O)[C@H](C)NC(=O)CNC(=O)[C@H](CC(C)C)NC(C)=O)C(=O)N[C@@H](CO)C(=O)N[C@@H](Cc1ccccc1)C(=O)N[C@@]1(C)CCCC=CCCC[C@@](C)(C(=O)N[C@@H](CCC(N)=O)C(=O)N[C@@H](CCC(N)=O)C(=O)N[C@@H](CCC(N)=O)C(=O)N[C@@H](CCCCN)C(=O)N[C@@H](CO)C(=O)N[C@@H](CO)C(=O)N[C@@H](CC(N)=O)C(N)=O)NC(=O)CNC(=O)[C@H](CCC(=O)O)NC(=O)[C@H](CC(=O)O)NC1=O
With B4, the 50% inhibitory concentration (IC50) came to 23.7 µM.

B5: SP53 (peptide)
peptide: Ac-LGANDQLISF[S5]DEG[S5]QEEKSSN-NH2
modifications: staple 11-15
SMILES: CC[C@H](C)[C@H](NC(=O)[C@H](CC(C)C)NC(=O)[C@H](CCC(N)=O)NC(=O)[C@H](CC(=O)O)NC(=O)[C@H](CC(N)=O)NC(=O)[C@H](C)NC(=O)CNC(=O)[C@H](CC(C)C)NC(C)=O)C(=O)N[C@@H](CO)C(=O)N[C@@H](Cc1ccccc1)C(=O)N[C@@]1(C)CCCC=CCCC[C@@](C)(C(=O)N[C@@H](CCC(N)=O)C(=O)N[C@@H](CCC(=O)O)C(=O)N[C@@H](CCC(=O)O)C(=O)N[C@@H](CCCCN)C(=O)N[C@@H](CO)C(=O)N[C@@H](CO)C(=O)N[C@@H](CC(N)=O)C(N)=O)NC(=O)CNC(=O)[C@H](CCC(=O)O)NC(=O)[C@H](CC(=O)O)NC1=O
On to B5, for which the 50% inhibitory concentration (IC50) was found to be 24.4 µM.

B6: SP5 (peptide)
peptide: Ac-RNLADVKS[S5]LVN[S5]S-NH2
modifications: staple 9-13
SMILES: CC(=O)N[C@@H](CCCNC(=N)N)C(=O)N[C@@H](CC(N)=O)C(=O)N[C@@H](CC(C)C)C(=O)N[C@@H](C)C(=O)N[C@@H](CC(=O)O)C(=O)N[C@H](C(=O)N[C@@H](CCCCN)C(=O)N[C@@H](CO)C(=O)N[C@@]1(C)CCCC=CCCC[C@@](C)(C(=O)N[C@@H](CO)C(N)=O)NC(=O)[C@H](CC(N)=O)NC(=O)[C@H](C(C)C)NC(=O)[C@H](CC(C)C)NC1=O)C(C)C
Turning to B6, the IC50 is no less than 100 µM.

B7: SP54 (peptide)
peptide: Ac-SA[S5]RDL[S5]NVKSSLV-NH2
modifications: staple 3-7
SMILES: CC(=O)N[C@@H](CO)C(=O)N[C@@H](C)C(=O)N[C@@]1(C)CCCC=CCCC[C@@](C)(C(=O)N[C@@H](CC(N)=O)C(=O)N[C@H](C(=O)N[C@@H](CCCCN)C(=O)N[C@@H](CO)C(=O)N[C@@H](CO)C(=O)N[C@@H](CC(C)C)C(=O)N[C@H](C(N)=O)C(C)C)C(C)C)NC(=O)[C@H](CC(C)C)NC(=O)[C@H](CC(=O)O)NC(=O)[C@H](CCCNC(=N)N)NC1=O
notes: also called Ac-SA$RDL$NVKSSLV-NH2
Regarding B7, the half-maximal inhibitory concentration (IC50) is no less than 100 µM.

B8: SP51 (peptide)
peptide: LGANDELISFADEGAQEEKSS
chain: AARDLANVKSSLV
modifications: not fully specified; N-terminal acetyl; C-terminal amide; PEG4 = NH-(PEG)4-COOH (19 atoms) linker between the two peptide parts; $ = (S)-alpha-(2'-pentenyl)alanine at positions 11 and 15 of the first part and at positions 2 and 6 of the second part, each pair joined by an all-carbon crosslinker with one double bond
notes: The two peptide parts are joined by a non-peptide PEG4 spacer, not by a peptide bond
On to B8, for which the IC50 was 0.603 µM.

B9: SP1 (peptide)
peptide: Ac-NL[S5]NVK[S5]SLVNQS-NH2
modifications: staple 3-7
SMILES: CC(=O)N[C@@H](CC(N)=O)C(=O)N[C@@H](CC(C)C)C(=O)N[C@@]1(C)CCCC=CCCC[C@@](C)(C(=O)N[C@@H](CO)C(=O)N[C@@H](CC(C)C)C(=O)N[C@H](C(=O)N[C@@H](CC(N)=O)C(=O)N[C@@H](CCC(N)=O)C(=O)N[C@@H](CO)C(N)=O)C(C)C)NC(=O)[C@H](CCCCN)NC(=O)[C@H](C(C)C)NC(=O)[C@H](CC(N)=O)NC1=O
notes: also called Ac-NL$NVK$SLVNQS-NH2
Regarding B9, the 50% inhibitory concentration (IC50) was no less than 100 µM.

B10: SP56 (peptide)
peptide: Ac-RDLA[S5]VVS[S5]LVNES-NH2
modifications: staple 5-9
SMILES: CC(=O)N[C@@H](CCCNC(=N)N)C(=O)N[C@@H](CC(=O)O)C(=O)N[C@@H](CC(C)C)C(=O)N[C@@H](C)C(=O)N[C@@]1(C)CCCC=CCCC[C@@](C)(C(=O)N[C@@H](CC(C)C)C(=O)N[C@H](C(=O)N[C@@H](CC(N)=O)C(=O)N[C@@H](CCC(=O)O)C(=O)N[C@@H](CO)C(N)=O)C(C)C)NC(=O)[C@H](CO)NC(=O)[C@H](C(C)C)NC(=O)[C@H](C(C)C)NC1=O
notes: also called Ac-RDLA$VVS$LVNES-NH2
For the molecule B10, the IC50 was no less than 100 µM.

B11: SP42 (peptide)
peptide: Ac-SA[S5]RNL[S5]DVKSSLV-NH2
modifications: staple 3-7
SMILES: CC(=O)N[C@@H](CO)C(=O)N[C@@H](C)C(=O)N[C@@]1(C)CCCC=CCCC[C@@](C)(C(=O)N[C@@H](CC(=O)O)C(=O)N[C@H](C(=O)N[C@@H](CCCCN)C(=O)N[C@@H](CO)C(=O)N[C@@H](CO)C(=O)N[C@@H](CC(C)C)C(=O)N[C@H](C(N)=O)C(C)C)C(C)C)NC(=O)[C@H](CC(C)C)NC(=O)[C@H](CC(N)=O)NC(=O)[C@H](CCCNC(=N)N)NC1=O
notes: also called Ac-SA$RNL$DVKSSLV-NH2
Turning to B11, the half-inhibitory concentration (IC50) is no less than 100 µM.

B12: SP6 (peptide)
peptide: Ac-RDLA[S5]VKS[S5]LVNQS-NH2
modifications: staple 5-9
SMILES: CC(=O)N[C@@H](CCCNC(=N)N)C(=O)N[C@@H](CC(=O)O)C(=O)N[C@@H](CC(C)C)C(=O)N[C@@H](C)C(=O)N[C@@]1(C)CCCC=CCCC[C@@](C)(C(=O)N[C@@H](CC(C)C)C(=O)N[C@H](C(=O)N[C@@H](CC(N)=O)C(=O)N[C@@H](CCC(N)=O)C(=O)N[C@@H](CO)C(N)=O)C(C)C)NC(=O)[C@H](CO)NC(=O)[C@H](CCCCN)NC(=O)[C@H](C(C)C)NC1=O
notes: also called Ac-RDLA$VKS$LVNQS-NH2
Take B12: the IC50 was no less than 100 µM.

B13: SP43 (peptide)
peptide: Ac-SA[S5]RDL[S5]NVKSSLV-NH2
modifications: staple 3-7
SMILES: CC(=O)N[C@@H](CO)C(=O)N[C@@H](C)C(=O)N[C@@]1(C)CCCC=CCCC[C@@](C)(C(=O)N[C@@H](CC(N)=O)C(=O)N[C@H](C(=O)N[C@@H](CCCCN)C(=O)N[C@@H](CO)C(=O)N[C@@H](CO)C(=O)N[C@@H](CC(C)C)C(=O)N[C@H](C(N)=O)C(C)C)C(C)C)NC(=O)[C@H](CC(C)C)NC(=O)[C@H](CC(=O)O)NC(=O)[C@H](CCCNC(=N)N)NC1=O
notes: as for B7
With B13, the IC50 was no less than 100 µM.

B14: SP7 (peptide)
peptide: Ac-RDLA[R8]VKSSLV[S5]QS-NH2
modifications: staple 5-12
SMILES: CC(=O)N[C@@H](CCCNC(=N)N)C(=O)N[C@@H](CC(=O)O)C(=O)N[C@@H](CC(C)C)C(=O)N[C@@H](C)C(=O)N[C@]1(C)CCCCCCC=CCCC[C@@](C)(C(=O)N[C@@H](CCC(N)=O)C(=O)N[C@@H](CO)C(N)=O)NC(=O)[C@H](C(C)C)NC(=O)[C@H](CC(C)C)NC(=O)[C@H](CO)NC(=O)[C@H](CO)NC(=O)[C@H](CCCCN)NC(=O)[C@H](C(C)C)NC1=O
notes: also called Ac-RDLA$r8VKSSLV$QS-NH2
For B14, the IC50 is no less than 100 µM.

B15: SP55 (peptide)
peptide: Ac-SA[S5]RNL[S5]DVKSSLV-NH2
modifications: staple 3-7
SMILES: CC(=O)N[C@@H](CO)C(=O)N[C@@H](C)C(=O)N[C@@]1(C)CCCC=CCCC[C@@](C)(C(=O)N[C@@H](CC(=O)O)C(=O)N[C@H](C(=O)N[C@@H](CCCCN)C(=O)N[C@@H](CO)C(=O)N[C@@H](CO)C(=O)N[C@@H](CC(C)C)C(=O)N[C@H](C(N)=O)C(C)C)C(C)C)NC(=O)[C@H](CC(C)C)NC(=O)[C@H](CC(N)=O)NC(=O)[C@H](CCCNC(=N)N)NC1=O
notes: as for B11
Consider B15, for which the IC50 was no less than 100 µM.
